{
  "source": "paper doi:10.1101/2024.06.06.597810",
  "about": "(bioRxiv, 2024)",
  "binders": {"B1": {"name": "S2P6 in single-chain variable fragment (scFv) format (scFv, V domains shown)", "VH": "EVQLVQSGAEVKKPGASVKVSCKASGYTFTSQYMHWVRQAPGQGLEWIGIINPSGVHTSYAQKFQGRVTLTRDTSTSTLYMELSSLRSEDTAVYYCARGSPKGAFDYWGQGTLVTVSS", "VL": "not shown", "notes": "not shown: HA, C-terminal, kept"}},
  "molecular_target": "T1, SARS-CoV-2 spike stem helix peptide (residues 1146-1159), displayed on yeast (SARS-CoV-2)",
  "T1 chain": "DSFKEELDKYFKNH",
  "test": "flow cytometry on cells",
  "conditions": "partners not purified",
  "data": [
    {"binder": "B1", "values": [
      {"measurement": "binding result", "result": "binds"}
    ]}
  ]
}
